This note sets out measurements from US20140243272A1 (ALPHABETA, published 2014).

T1: ER-luminal part of the human Bri protein (human, UniProt Q9Y287 90-236, limits assumed)
T1 construct: domain: ER-luminal part
T1 sequence (looked up): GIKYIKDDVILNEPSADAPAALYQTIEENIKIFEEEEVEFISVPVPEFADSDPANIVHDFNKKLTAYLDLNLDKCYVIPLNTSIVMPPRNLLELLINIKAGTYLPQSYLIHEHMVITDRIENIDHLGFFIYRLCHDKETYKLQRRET

T2: KRAAAAAAAA, Ala-substituted version of SP-C 11-20, spot 9 (human)
T2 peptide: KRAAAAAAAA

T3: RAAAAAAAAA, Ala-substituted version of SP-C 12-21, spot 12 (human)
T3 peptide: RAAAAAAAAA

T4: KRLLLLLLLL, Leu-substituted version of SP-C 11-20, spot 8 (human)
T4 peptide: KRLLLLLLLL

T5: RLLLLLLLLL, Leu-substituted version of SP-C 12-21, spot 11 (human)
T5 peptide: RLLLLLLLLL

T6: LVVVVIVGAL (positions 22-31 in SP-C^I23V), spots 21 and 23 (human)
T6 construct: also called spot 21; spot 23
T6 peptide: LVVVVIVGAL

B1: LLLLLLLLLL, poly-leucine 10-mer peptide, spot 17 (peptide)
peptide: LLLLLLLLLL
notes: also called decamer of L
B2: AAAAAAAAAA, poly-alanine 10-mer peptide, spot 18 (peptide)
peptide: AAAAAAAAAA
notes: also called decamer of A
B3: S-tagged recombinant human CTproSP-C (proSP-C^59-197) (other)
chain: GSGMKETAAAKFERQHMDSPDLGTDDDDKAMAHMSQKHTEMVLEMSIGAPEAQQRLALSEHLVTTATFSIGSTGLVVYDYQQLLIAYKPAPGTCCYIMKIAPESIPSLEALTRKVHNFQMECSLQAKPAVPTSKLGQAEGRDAGSAPSGGDPAFLGMAVSTLCGEVPLYYI
notes: SEC and ESI-MS show mainly trimers and oligomers of trimers; also called CTC; C-terminal domain of lung surfactant protein C precursor
B4: Recombinant human CTproSP-C^L188Q, S-tagged (other)
chain: HMSQKHTEMVLEMSIGAPEAQQRLALSEHLVTTATFSIGSTGLVVYDYQQLLIAYKPAPGTCCYIMKIAPESIPSLEALNRKVHNFQMECSLQAKPAVPTSKLGQAEGRDAGSAPSGGDPAFLGMAVNTQCGEVPLYYI
notes: also called mutant human CTproSP-C^L188Q; not shown: S-tag left after thrombin cleavage
B5: cellulose-bound decamer of Y (peptide)
peptide: YYYYYYYYYY
notes: also called stretch of Y
B6: cellulose-bound decamer of M (peptide)
peptide: MMMMMMMMMM
notes: also called stretch of M
B7: cellulose-bound decamer of P (peptide)
peptide: PPPPPPPPPP
notes: also called P counterpart
B8: Recombinant human CTproSP-CBrichos (human proSP-C^94-197), S-tagged (other)
chain: FSIGSTGLVVYDYQQLLIAYKPAPGTCCYIMKIAPESIPSLEALNRKVHNFQMECSLQAKPAVPTSKLGQAEGRDAGSAPSGGDPAFLGMAVNTLCGEVPLYYI
notes: also called Brichos domain of human CTproSP-C; Brichos region; not shown: S-tag and vector residues from pET-32c left after thrombin cleavage
B9: cellulose-bound decamer of F (peptide)
peptide: FFFFFFFFFF
notes: also called stretch of F
B10: cellulose-bound decamer of I (peptide)
peptide: IIIIIIIIII
notes: also called stretch of I
B11: cellulose-bound decamer of G (peptide)
peptide: GGGGGGGGGG
notes: also called G counterpart
B12: cellulose-bound decamer of W (peptide)
peptide: WWWWWWWWWW
notes: also called W counterpart

Test [1] concerns the target T1, ER-luminal part of the human Bri protein. In words: cellulose-bound decamer SPOT membrane, control. As to the method: (§1) After blocking with 2% BSA for one hour and washing with T-TBS 4×1 h, the membranes were incubated with HRP-conjugated S-protein (Novagen, Madison, Wis.) diluted 1:5000.
Test [2] addresses T2, KRAAAAAAAA, Ala-substituted version of …. In words: peptide SPOT membrane, S-protein-HRP, ECL. As to the method: (§2) SPOT membranes (Frank R, J Immunol Meth, 267:13-26, 2002), containing 10-residue fragments derived from SP-C(SP-C^I23V) were purchased from Sigma Genosys (Cambridge, England). […] The membranes were then blocked with 2% BSA in TBS for one hour. After washing with T-TBS 4×1 h, the membranes were incubated with HRP-conjugated S-protein (Novagen, Madison, Wis.) diluted 1:5000 in T-TBS containing 2% BSA. The membranes were then washed again with T-TBS 4×1 h and binding was visualized by ECL according to the manufacturer's instructions.

The target of test [3] is T3, RAAAAAAAAA, Ala-substituted version of …. Put plainly: peptide SPOT membrane, S-protein-HRP, ECL. How it is done: as §2
In test [4] the target is B2. Put plainly: peptide SPOT membrane, S-protein-HRP, ECL. As to the method: as §2
Test [5] concerns the target B12. In words: cellulose-bound decamer SPOT membrane, S-protein-HRP, ECL. How it is done:
as §1

Test [6] concerns the target B11. The test is described as above. As to the method:
as §1

Test [7] addresses B7. Described as above. How it is done:
as §1

Test [8] addresses T4, KRLLLLLLLL, Leu-substituted version of …. Put plainly: peptide SPOT membrane, spot 8. As to the method: as §2
Test [9] deals with T5, RLLLLLLLLL, Leu-substituted version of …. Put plainly: peptide SPOT membrane, spot 11. As to the method:
as §2

Test [10] concerns the target B1. In words: cellulose-bound decamer SPOT membrane, 1 µg/ml protein, S-protein-HRP, ECL. How it is done: as §1
Test [11] concerns the target B5. Described as above. How it is done:
as §1

Test [12] deals with B9. Described as above. How it is done: as §1
The target in test [13] is B6. The description is as above. How it is done:
as §1

Test [14] deals with B10. Described as above. As to the method:
as §1

The target of test [15] is T6, LVVVVIVGAL (positions 22-31 in …). In words: peptide SPOT membrane, S-protein-HRP, ECL. As to the method: as §2
Test [16] addresses B12. In words: cellulose-bound decamer SPOT membrane, control. As to the method:
as §1

The target of test [17] is B1. Put plainly: cellulose-bound decamer SPOT membrane, control. As to the method: as §1
For test [18], the target named is B11. Put plainly: cellulose-bound decamer SPOT membrane, control. How it is done: as §1
The target of test [19] is B5. In words: cellulose-bound decamer SPOT membrane, control. As to the method:
as §1

Test [20] addresses B9. Put plainly: cellulose-bound decamer SPOT membrane, control. How it is done:
as §1

Test [21] addresses B7. In words: cellulose-bound decamer SPOT membrane, control. As to the method: as §1
The target in test [22] is B2. In words: cellulose-bound decamer SPOT membrane, control. How it is done: as §1
Test [23] has as its target B6. Put plainly: cellulose-bound decamer SPOT membrane, control. As to the method: as §1
The target in test [24] is B10. Put plainly: cellulose-bound decamer SPOT membrane, control. How it is done: as §1
The target in test [25] is B1. Put plainly: cellulose-bound decamer SPOT membrane. As to the method: as §1
For test [26], the target named is B5. In words: cellulose-bound decamer SPOT membrane. As to the method: as §1
Test [27] deals with B9. Put plainly: cellulose-bound decamer SPOT membrane. How it is done:
as §1

Test [28] concerns the target B6. In words: cellulose-bound decamer SPOT membrane. How it is done:
as §1

In test [29] the target is B10. In words: cellulose-bound decamer SPOT membrane. How it is done: as §1

As for B1, the binding result in [1] is “no binding”.
The same measure, in the same setting: as for B2, the entry is “no binding”.
On to B3, for which the binding result in test [2], in test [3], in test [4], in test [5], in test [6] and in [7] was “no binding (tested: 1 µg/ml)” throughout. Moreover, the binding result in test [8], in test [9], in [10], in test [11], in test [12] and in [13] was “binds” throughout. The binding result in [14] is reported as “binds”.
On to B4, for which the binding result was “no binding (tested: 1 µg/ml)” in test [15]; “no binding” in test [16]; “no binding” in [17]; “no binding” in [18]; “no binding” in [19]; “no binding” in test [20]. Besides, the binding result in [21], in test [22], in test [23] and in test [24] was “no binding” in each case.
Take B5: in test [1], the binding result is on record as “no binding”.
For the molecule B6, in [1], the binding result was “no binding”.
On to B7, for which, in test [1], the binding result was “no binding”.
Regarding B8, the binding result in test [25], in test [26], in test [27], in test [28] and in [29] was “binds” each time.
For B9, the binding result in test [1] is reported as “no binding”.
Still for that read-out and setting: as for B10, the entry is “no binding”; as for B11, “no binding”.
Same read-out and setting: as for B12, the entry is “no binding”.
